The target in data set [1] is T1, AT4 receptor (Bos taurus, UniProt F1N1Q8).
T1 sequence (F1N1Q8 1-1022): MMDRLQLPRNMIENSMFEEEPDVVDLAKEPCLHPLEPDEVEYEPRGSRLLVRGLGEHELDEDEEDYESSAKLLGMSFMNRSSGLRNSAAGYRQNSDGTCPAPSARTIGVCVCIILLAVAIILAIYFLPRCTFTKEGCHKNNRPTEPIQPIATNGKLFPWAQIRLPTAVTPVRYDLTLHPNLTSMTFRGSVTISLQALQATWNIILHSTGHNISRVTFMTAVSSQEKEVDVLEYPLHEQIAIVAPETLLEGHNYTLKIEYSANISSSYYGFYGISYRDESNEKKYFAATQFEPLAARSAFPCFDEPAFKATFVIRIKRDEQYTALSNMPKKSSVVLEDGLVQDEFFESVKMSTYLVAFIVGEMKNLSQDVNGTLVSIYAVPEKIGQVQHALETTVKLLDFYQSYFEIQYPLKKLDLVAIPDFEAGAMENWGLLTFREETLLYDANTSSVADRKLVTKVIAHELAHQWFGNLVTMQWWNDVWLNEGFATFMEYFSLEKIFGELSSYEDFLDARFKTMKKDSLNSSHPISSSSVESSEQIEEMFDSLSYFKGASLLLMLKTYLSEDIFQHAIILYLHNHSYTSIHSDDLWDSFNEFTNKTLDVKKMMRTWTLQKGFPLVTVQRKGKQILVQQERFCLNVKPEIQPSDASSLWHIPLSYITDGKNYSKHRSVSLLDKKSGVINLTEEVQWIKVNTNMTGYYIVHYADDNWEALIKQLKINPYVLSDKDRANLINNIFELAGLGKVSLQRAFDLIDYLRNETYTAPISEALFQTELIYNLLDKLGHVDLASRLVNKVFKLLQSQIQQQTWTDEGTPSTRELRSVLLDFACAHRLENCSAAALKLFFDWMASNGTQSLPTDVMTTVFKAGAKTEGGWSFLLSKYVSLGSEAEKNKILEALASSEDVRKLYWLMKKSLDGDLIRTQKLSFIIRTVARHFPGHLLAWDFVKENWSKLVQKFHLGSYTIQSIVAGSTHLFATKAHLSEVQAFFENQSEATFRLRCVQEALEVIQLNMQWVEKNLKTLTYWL
Nature of the data set: 125I-AIV binding and competition, bovine adrenal cortical membranes. Particulars: read-out: 125I-AIV Binding (Ki); competition.

In the next data set the test system is rat kidney. Nature of the data set: Renal cortical blood flow (laser doppler) and arterial pressure after infusion into the renal artery. Conditions: infusion into renal artery. In kind it is in vivo.
For data set [2] the following is noted: in vivo; cited from earlier work.
For data set [3] the following is noted: in vivo; cited from earlier work. The source holds these as a separate data set.
Data set [4] can be described thus: Stability of angiotensin peptides in binding buffer (reverse phase HPLC). In kind it is physicochemical. Conditions: 4 h at 37° C. The protocol:
Binding studies were carried out in a buffer (below) containing an extensive cocktail of inhibitors that was designed to minimize metabolism of both the receptor and the test ligand, i.e., the buffer contained 5 mM EDTA, 0.2% BSA, […] Bestatin, 50 μM Plummer's inhibitor, and 100 μM PMSF.

Data set [5] concerns the target T2, AT1 receptor (AII receptor) (Bos taurus, UniProt P25104).
T2 construct: from tissue; host or cells: bovine adrenal cortex membranes
T2 sequence (P25104 1-359): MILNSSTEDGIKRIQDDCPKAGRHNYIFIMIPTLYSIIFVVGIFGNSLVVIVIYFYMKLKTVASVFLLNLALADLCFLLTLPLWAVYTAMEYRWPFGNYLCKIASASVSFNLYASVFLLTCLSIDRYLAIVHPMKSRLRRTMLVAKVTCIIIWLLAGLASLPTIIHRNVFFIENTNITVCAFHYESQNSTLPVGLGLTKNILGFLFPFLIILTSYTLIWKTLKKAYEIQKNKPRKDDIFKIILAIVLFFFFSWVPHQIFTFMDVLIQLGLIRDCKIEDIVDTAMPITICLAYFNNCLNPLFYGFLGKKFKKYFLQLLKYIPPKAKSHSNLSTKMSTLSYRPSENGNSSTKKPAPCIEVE
In kind it is binding, bovine. Conditions: 37° C., 2 h, HPLC.

The target in data set [6] is T3, AT4 receptor (Oryctolagus cuniculus, UniProt G1SFU4).
T3 sequence (G1SFU4 1-1025): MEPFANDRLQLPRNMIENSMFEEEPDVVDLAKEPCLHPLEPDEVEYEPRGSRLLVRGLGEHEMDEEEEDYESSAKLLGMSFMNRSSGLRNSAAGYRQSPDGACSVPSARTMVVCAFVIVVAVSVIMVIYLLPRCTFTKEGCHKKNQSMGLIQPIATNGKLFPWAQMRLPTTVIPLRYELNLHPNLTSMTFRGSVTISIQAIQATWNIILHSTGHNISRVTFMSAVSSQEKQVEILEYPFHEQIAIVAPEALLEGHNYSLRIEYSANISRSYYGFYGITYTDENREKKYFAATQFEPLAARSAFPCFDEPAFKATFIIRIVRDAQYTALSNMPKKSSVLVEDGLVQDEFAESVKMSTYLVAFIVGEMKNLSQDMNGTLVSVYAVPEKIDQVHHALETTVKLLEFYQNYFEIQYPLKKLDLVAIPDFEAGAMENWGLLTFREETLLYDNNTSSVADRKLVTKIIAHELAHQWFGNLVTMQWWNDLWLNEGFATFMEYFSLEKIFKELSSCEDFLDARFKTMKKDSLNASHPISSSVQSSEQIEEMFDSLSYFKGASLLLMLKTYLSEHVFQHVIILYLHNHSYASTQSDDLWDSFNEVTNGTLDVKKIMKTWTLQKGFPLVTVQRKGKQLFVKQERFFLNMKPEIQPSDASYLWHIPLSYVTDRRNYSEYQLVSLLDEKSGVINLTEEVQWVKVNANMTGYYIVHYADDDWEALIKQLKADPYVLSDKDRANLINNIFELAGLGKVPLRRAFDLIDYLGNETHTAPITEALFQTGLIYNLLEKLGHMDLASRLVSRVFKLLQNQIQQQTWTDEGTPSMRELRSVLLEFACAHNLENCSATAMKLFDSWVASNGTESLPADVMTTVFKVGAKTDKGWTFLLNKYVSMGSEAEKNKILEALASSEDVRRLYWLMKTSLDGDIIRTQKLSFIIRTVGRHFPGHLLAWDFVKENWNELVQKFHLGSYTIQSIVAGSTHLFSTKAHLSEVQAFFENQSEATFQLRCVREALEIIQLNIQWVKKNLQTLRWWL
Put plainly: 125I-AIV binding and competition, rabbit heart P2 membranes. Particulars: competition of 0.5 nM 125I-AIV, 120 min, 37° C.

One may read the Ki as a dissociation constant, usually derived from enzyme kinetics or from competition with a known ligand.

As to “Asp1 Arg2 Val3 Tyr4 Ile5 His6 Pro7 Phe8 (DRVYIHPF) [AII]”, the Ki with AT4 receptor [1] and with AT4 receptor [6] was greater than 1000 nM throughout. Besides, in the data set on rat kidney, the “effect on renal blood flow (in words)” value was “dramatic decrease in renal blood flow”. Also, the “metabolized during transit through the kidney” value in data set [2] is recorded as 72-76%. The half-lives in data set [3] is 4.4 min. For the same substance, the “hydrolysis in binding buffer” value in data set [4] is listed as “less than 10%”. Moreover, the “overall hydrolysis under conditions of the assay” value in data set [5] was “less than 2%”.

The record behind these values is patent publication US5854388A, “Angiotensin IV peptides and receptor” (Washington State University Research Foundation, priority 1994, dated 1998).
